The record followed here is patent US20140056903A1 (Regeneron, published 2014).

Some results are limits rather than exact numbers.

Assay [1] has as its target T1, human GFRα3 expressed with a C-terminal mFc tag (human).
T1 construct: also called hGFRα3-mFc
T1 chain: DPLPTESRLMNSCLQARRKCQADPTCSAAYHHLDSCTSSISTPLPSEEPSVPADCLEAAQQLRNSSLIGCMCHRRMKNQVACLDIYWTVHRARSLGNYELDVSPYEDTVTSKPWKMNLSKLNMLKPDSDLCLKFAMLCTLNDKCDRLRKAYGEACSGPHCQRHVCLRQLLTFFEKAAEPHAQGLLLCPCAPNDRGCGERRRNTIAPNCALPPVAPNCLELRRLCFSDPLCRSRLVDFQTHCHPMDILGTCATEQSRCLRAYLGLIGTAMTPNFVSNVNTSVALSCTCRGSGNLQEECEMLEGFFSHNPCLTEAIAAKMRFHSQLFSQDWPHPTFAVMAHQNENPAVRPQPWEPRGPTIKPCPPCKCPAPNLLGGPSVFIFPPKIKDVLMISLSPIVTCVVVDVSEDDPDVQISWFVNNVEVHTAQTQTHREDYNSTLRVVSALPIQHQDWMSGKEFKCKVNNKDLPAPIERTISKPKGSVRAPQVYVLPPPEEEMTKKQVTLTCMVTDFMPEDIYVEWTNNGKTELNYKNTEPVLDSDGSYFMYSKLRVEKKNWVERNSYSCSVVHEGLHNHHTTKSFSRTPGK
Kind of assay: SPR, Ab captured, 25C. The gist of the method: (§1)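 Capture: anti-mIgG or anti-hIgG on CM5. Analyte: mmh antigen 200–7.4 nM, hFc antigen 100–3.7 nM, 3-fold series. Assoc ≤4 min, dissoc ≤20 min. 1:1 fit; KD = kd/kₐ, t½ = ln2/(60*kd).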

The target in assay [2] is T2, monkey GFRα3 expressed with a C-terminal myc-myc-hexahistidine tag (monkey (Mf), UniProt O60609 32-374 (human entry), limits assumed).
T2 construct: also called MfGFRα3-mmh; MfGFRα3-mmH
T2 chain: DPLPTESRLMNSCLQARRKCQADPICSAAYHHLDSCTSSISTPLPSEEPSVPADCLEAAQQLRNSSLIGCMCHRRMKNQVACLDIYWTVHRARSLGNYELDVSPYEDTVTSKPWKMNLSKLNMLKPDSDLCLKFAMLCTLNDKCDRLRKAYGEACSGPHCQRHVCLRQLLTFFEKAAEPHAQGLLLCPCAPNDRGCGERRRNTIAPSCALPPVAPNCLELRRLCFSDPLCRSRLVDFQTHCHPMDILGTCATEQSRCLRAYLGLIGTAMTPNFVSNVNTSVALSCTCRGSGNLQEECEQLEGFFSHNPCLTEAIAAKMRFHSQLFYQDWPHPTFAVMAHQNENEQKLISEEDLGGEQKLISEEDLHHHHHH
Kind of assay: SPR, Ab captured, 25C. An outline of the steps: as §1

Assay [3] has as its target T3, human GFRα3 expressed with a C-terminal myc-myc-hexahistidine tag (human, UniProt O60609 32-374, biotinylated (sites not given) in ELISA format 2 and in the Octet cross-competition; not in SPR).
T3 construct: also called hGFRα3-mmh; hGFRα3-mmH
Kind of assay: Octet RED384; 25 µg/mL first antibody on streptavidin-captured biotin-hGFRα3-mmH. The procedure: (§2) A cross-competition assay was conducted to assess the ability of select antibodies to compete with one another for binding to human GFRα3 using an Octet RED384 biosensor (Fortebio Inc.). The entire experiment was performed at 25° C. with the flow rate of 1000 rpm in Octet HBST buffer (0.01 M HEPES pH7.4, 0.15M NaCl, 3 mM EDTA, 0.05% v/v Surfactant P20, 0.1 mg/mL BSA). To assess whether 2 antibodies were able to compete with one another for binding to their respective epitopes on biotinylated recombinant human GFRα3 expressed with a C-terminal myc-myc-hexahistidine tag (biotin-hGFRα3-mmH; SEQ ID:370), around ˜1.2 nm of biotin-hGFRα3-mmH was first captured onto streptavidin-coated Octet sensor tips (Fortebio Inc, #18-5019) by submerging the tips for 1 minute into a 10 μg/mL solution of biotin-hGFRα3-mmH. The antigen coated sensor tips were then placed into wells containing 25 μg/mL solution of a first anti-GFRα3 monoclonal antibody for 4 minutes to saturate the biotin-hGFRα3-mmH surface. The sensor tips were then subsequently dipped into wells containing 25 μ/mL solution of a second anti-GFRα3 monoclonal antibody. The sensor tips were washed in Octet HBST buffer in between every step of the experiment. The real-time binding response was monitored during the course of the experiment and the binding response at the end of every step was recorded as shown in FIG. 9. The response of mAb-2 binding to biotin-hGFRα3-mmH pre-complexed with the first antibody was compared and competitive/non-competitive behavior of different anti-GFRα3 monoclonal antibodies was determined.

Assay [4] addresses T3, human GFRα3 expressed with a C-terminal …. Kind of assay: Octet cross-competition; biotin-hGFRα3-mmH pre-saturated with first antibody H4H2294S. The procedure:
as §2
In general terms: In BLI a coated tip is dipped into the sample, and binding shifts an interference pattern.

Assay [5] has the same target. Kind of assay: Octet cross-competition; biotin-hGFRα3-mmH pre-saturated with first antibody H4H2342P. Here is the method:
as §2

T3 sequence (O60609 other isoform, or with tags, fused parts or gaps limits assumed): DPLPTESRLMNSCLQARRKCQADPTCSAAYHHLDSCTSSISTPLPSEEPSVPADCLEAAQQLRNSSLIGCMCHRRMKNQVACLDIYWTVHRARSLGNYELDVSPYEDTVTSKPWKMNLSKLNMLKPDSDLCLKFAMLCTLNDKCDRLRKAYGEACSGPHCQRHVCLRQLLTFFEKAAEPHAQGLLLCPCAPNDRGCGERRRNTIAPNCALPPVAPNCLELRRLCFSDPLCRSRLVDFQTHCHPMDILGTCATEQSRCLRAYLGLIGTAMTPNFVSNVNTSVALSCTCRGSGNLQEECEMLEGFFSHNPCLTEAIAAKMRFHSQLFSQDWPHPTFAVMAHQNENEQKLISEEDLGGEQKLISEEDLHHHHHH

B1: H4H2350P (antibody, human IgG4, V domains shown)
VH: QVQLQESGPGLVKPSETLSLTCTVSGGSISTYYWSWFRQPPGKGLEWIGYIYYSGSTNHNPSLKSRVTISVDTSKNQFSLKLRSVTAADTAVYYCARVGPVGWGSWGNFDYWGQGTLVTVSS
VL: DIQLTQSPSFLSASVGDRVTITCWASQGISSYLAWSQQKPGKAPKLLIYAASTLQSGVPSRFSGSGSGTEFTLTISSLQPEDFATYYCQQLNSYPWTFGQGTKVEIK
notes: human IgG4 Fc (H4H)
What is called Kd is the concentration at which binding is half-saturated. For orientation: koff means the rate constant with which the complex falls apart. What is called kon is the rate constant with which the complex forms. In the case of B1, in assay [1], the dissociation constant Kd is 0.0416 nM, the koff was found to be 2.12e-05 s⁻¹, the kon turned out to be 509000 M⁻¹ s⁻¹ and the t1/2 was 9.08 h. Further, in assay [2], binding was characterised by a dissociation constant (Kd) of 1.71 nM, the koff amounted to 0.000111 s⁻¹, the kon is 64700 M⁻¹ s⁻¹ and the t1/2 turned out to be 1.73 h. Further, the “Amount of Antibody 1 bound (nm)” value in assay [3] was 3.31 nm. The “binding response of second antibody (nm)” value in assay [4] amounted to 1.42 nm. Besides, the “binding response of second antibody (nm)” value in assay [5] was found to be 1.46 nm.

B2: H4H2352S (antibody, human IgG4, V domains shown)
VH: EVQLVQSGAEVKKPGASVKVSCKASGYTFTNYGITWVRQAPGQGLEWMGWISAYNGNTGYAQKFQGRVTMTTDTSTSTAYMELRSLRSDDTAVYYCAREDYDFWRAFDIWGQGTMVTVSS
VL: EIVLTQSPGTLSLSPGERATLSCRASQSVSSTYLAWLQQKPGQAPRLLIYGASSRATGIPDRFSGSGSGTDFTLTINRLEPEDFAVYYCQQYAYSPYTFGQGTKLEIK
notes: human IgG4 Fc (H4H); also called H4H2352S-1
In assay [1], B2 yielded a Kd of no more than 0.000467 nM, a koff of no more than 1e-06 s⁻¹, a kon of 2.14e+06 M⁻¹ s⁻¹ and a t1/2 of 192 h. In assay [2], the Kd was no more than 0.0029 nM, the koff was no more than 1e-06 s⁻¹, the kon is 345000 M⁻¹ s⁻¹ and the t1/2 stood at 192 h. Besides, the “Amount of Antibody 1 bound (nm)” value in assay [3] amounted to 2.74 nm. Also, the “binding response of second antibody (nm)” value in assay [4] came to 1.99 nm. The “binding response of second antibody (nm)” value in assay [5] was determined as 1.72 nm.

B3: H4H2292S (antibody, human IgG4, V domains shown)
VH: EVQLVESGGGVVQPGRSLRLSCAASGFTFSSYGMHWVRQAPGKGLEWVSFIWYDGSNKYYADSVKGRFTISRDNSKNTLYLQMNSLTAEDTAVYYCARRGILTGTTAFDIWGQGTMVTVSS
VL: DIQMTQSPSSLSASVGDRVTITCRASQSISSYLNWYQQKPGKAPKLLIYAASSLQSGVPSRFSGSGSGTDFTLTIRSLIPEDFATYYCQQTYNTPFTFGPGTKVEIK
notes: human IgG4 Fc (H4H)
In assay [1], B3 showed a Kd of no more than 0.00187 nM, a kon of 534000 M⁻¹ s⁻¹ and a t1/2 of 192 h. Further, in assay [2], the Kd came out at 1.57 nM, the koff was 0.000122 s⁻¹, the kon amounted to 77600 M⁻¹ s⁻¹ and the t1/2 came out at 1.58 h. Besides, the “Amount of Antibody 1 bound (nm)” value in assay [3] amounted to 2.82 nm. Also, the “binding response of second antibody (nm)” value in assay [4] came out at 1.92 nm. The “binding response of second antibody (nm)” value in assay [5] was 1.85 nm.
